We go through four molecules from patent publication US20250092136A1 (Hoffmann-La Roche, published 2025).

Numbering of substitutions follows the chain as printed. Names may count otherwise.

B1: HER2-TCB containing the parental CD3 binder P1AH4929 / CD3orig (bispecific antibody, human IgG1, kappa, L234A L235A)
heavy 1: not shown
heavy 2: not shown
light 1: EVQLLESGGGLVQPGGSLRLSCAASGFTFSSYAMNWVRQAPGKGLEWVSRIRSKYNNYATYYADSVKGRFTISRDDSKNTLYLQMNSLRAEDTAVYYCVRASNFPASYVSYFAYWGQGTLVTVSSASVAAPSVFIFPPSDEQLKSGTASVVCLLNNFYPREAKVQWKVDNALQSGNSQESVTEQDSKDSTYSLSSTLTLSKADYEKHKVYACEVTHQGLSSPVTKSFNRGEC
light 2: not shown
notes: 2+1 IgG CrossFab, inverted: VH/VL exchange in the CD3 Fab, charge modifications in the two HER2 Fabs, knob-into-hole and P329G LALA in the Fc; also called PIAH4929
B2: HER2-TCB containing the optimized CD3 binder P1AI7912 (bispecific antibody, human IgG1, kappa, L234A L235A)
heavy 1: not shown
heavy 2: not shown
light 1: B1 light 1 with S49G, I51V, S53T, K54T, Y58R, A59E, T60P
light 2: not shown
notes: 2+1 IgG CrossFab, inverted: VH/VL exchange in the CD3 Fab, charge modifications in the two HER2 Fabs, knob-into-hole and P329G LALA in the Fc; also called P1AI7912 (in TCB format)
B3: HER2-TCB containing the optimized CD3 binder P1AI7913 (bispecific antibody, human IgG1, kappa, L234A L235A)
heavy 1: not shown
heavy 2: not shown
light 1: B1 light 1 with S49G, I51V, S53T, Y58R, A59E, T60P
light 2: not shown
notes: 2+1 IgG CrossFab, inverted: VH/VL exchange in the CD3 Fab, charge modifications in the two HER2 Fabs, knob-into-hole and P329G LALA in the Fc; also called P1AI7913 (in TCB format)
B4: HER2-TCB containing the optimized CD3 binder P1AI7915 (bispecific antibody, human IgG1, kappa, L234A L235A)
heavy 1: not shown
heavy 2: not shown
light 1: B1 light 1 with S49G, I51Q, S53T, K54Q, Y58R, A59E, T60D
light 2: not shown
notes: 2+1 IgG CrossFab, inverted; also called P1AI7915 (in TCB format)

Chain of human CD3ε (coated antigen of the polyreactivity ELISA) (P07766 23-126 limits assumed): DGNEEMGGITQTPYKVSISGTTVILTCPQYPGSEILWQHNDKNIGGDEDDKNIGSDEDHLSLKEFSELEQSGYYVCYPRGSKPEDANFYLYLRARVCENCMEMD
T5 sequence (P02769 25-607 limits assumed): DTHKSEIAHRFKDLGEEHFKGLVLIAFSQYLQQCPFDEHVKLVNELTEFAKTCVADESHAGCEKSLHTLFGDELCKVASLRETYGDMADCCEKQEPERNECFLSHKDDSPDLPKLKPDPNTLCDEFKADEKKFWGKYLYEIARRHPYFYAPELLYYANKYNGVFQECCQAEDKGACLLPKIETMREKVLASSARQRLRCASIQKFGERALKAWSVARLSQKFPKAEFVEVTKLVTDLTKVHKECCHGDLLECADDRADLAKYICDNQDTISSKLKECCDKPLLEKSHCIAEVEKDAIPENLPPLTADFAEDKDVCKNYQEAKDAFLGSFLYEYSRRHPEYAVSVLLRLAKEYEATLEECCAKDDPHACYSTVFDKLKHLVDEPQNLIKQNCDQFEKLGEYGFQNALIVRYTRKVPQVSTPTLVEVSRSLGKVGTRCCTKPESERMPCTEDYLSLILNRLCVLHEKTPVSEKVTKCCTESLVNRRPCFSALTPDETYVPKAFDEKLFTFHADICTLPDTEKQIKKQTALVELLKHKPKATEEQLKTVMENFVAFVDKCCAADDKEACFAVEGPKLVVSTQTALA
Chain of Apolipoprotein A-1 (P02647 25-267): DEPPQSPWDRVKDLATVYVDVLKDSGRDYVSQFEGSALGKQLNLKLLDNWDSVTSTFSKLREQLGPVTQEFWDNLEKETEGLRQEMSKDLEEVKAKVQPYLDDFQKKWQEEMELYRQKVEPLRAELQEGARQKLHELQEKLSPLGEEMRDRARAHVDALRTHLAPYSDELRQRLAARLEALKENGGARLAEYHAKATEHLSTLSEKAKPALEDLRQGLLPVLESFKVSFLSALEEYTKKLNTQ
T6 sequence (P07766 23-207 limits assumed): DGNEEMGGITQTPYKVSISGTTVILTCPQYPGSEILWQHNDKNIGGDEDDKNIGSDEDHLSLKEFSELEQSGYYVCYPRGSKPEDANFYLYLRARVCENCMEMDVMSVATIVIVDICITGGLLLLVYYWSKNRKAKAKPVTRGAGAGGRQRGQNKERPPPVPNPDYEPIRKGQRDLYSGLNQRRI

In the first test the target is T1, Biotinylated cynomolgus CD3ε stalk-Fc (knob)-Avi / CD3δ stalk-Fc (hole) (cynomolgus, biotinylated).
T1 construct: Heterodimer of CD3 epsilon and CD3 delta ectodomains fused to Fc knob/hole; also called cynomolgus CD3ε/δ; cyno CD3
T1 sequence (chain, as listed by the source mutant limits assumed, chain 1 of 2): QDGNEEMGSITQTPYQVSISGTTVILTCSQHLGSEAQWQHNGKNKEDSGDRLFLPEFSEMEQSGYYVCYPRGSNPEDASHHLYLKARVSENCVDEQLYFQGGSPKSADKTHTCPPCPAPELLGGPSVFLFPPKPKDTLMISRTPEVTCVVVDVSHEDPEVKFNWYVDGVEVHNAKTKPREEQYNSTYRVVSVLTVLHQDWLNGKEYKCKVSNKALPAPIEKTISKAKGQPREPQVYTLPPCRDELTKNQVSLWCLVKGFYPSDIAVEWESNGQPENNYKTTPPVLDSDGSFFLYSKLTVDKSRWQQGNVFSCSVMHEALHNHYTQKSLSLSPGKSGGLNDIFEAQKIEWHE
T1 sequence (chain, as listed by the source mutant limits assumed, chain 2 of 2): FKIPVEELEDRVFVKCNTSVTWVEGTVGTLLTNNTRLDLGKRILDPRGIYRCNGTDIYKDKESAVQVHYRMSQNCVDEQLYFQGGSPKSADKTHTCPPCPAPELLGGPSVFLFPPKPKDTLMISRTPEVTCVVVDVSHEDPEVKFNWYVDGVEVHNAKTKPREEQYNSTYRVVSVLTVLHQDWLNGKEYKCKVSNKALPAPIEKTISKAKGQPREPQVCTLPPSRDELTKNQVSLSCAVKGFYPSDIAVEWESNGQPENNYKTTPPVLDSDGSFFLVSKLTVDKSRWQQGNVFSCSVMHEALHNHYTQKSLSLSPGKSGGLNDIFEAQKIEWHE
The test is described as follows: SPR (Biacore T200), biotinylated CD3ε/δ-Fc on SA chip, TCB as analyte, 25 °C, 1:1 fit. How it is done:
(§1) CD3 binding was investigated using surface plasmon resonance (SPR) on a Biacore T200 instrument (Cytiva). All experiments were performed at 25° C. using HEPES buffered saline (20 mM HEPES, 140 mM NaCl, 0.05% PS-20) pH 7.4. The experimental setup is schematically depicted in FIG. 3.
(§2) Biotinylated human and cynomolgus CD3ε stalk-Fc (knob)-Avi/[…] stalk-Fc (hole) (CD3E/8, see SEQ ID NOs 49 and 50 (human) and SEQ ID NOs 51 and 52 (cynomolgus)) were coupled to a Series S Sensor Chip SA (Cytiva, #29104992) according to the manufacturer's instructions. A concentration series ranging from 0.37 to 300 nM (1:3) of the TCB antibody molecules were injected with 90 s association time, followed by a buffer wash of 300 s for monitoring the dissociation phase. Bulk refractive index differences were corrected by subtracting the response obtained from a mock surface. Blank injections were subtracted (double referencing). Kinetic constants were derived using the Biacore T200 Evaluation Software (Cytiva), to fit rate equations for 1:1 Langmuir binding by numerical integration. The half-life (t_{1/2}) of the interaction was calculated using the formula t_{1/2}=ln2/koff.
(SPR reads the build-up and loss of mass on a sensor chip optically.)
As a reminder, the Kd is a measure of binding affinity in units of concentration. In the case of B1, binding was characterised by a dissociation constant (Kd) of 0.2 nM and the t1/2 is 519 s.

For the molecule B2, the Kd was determined as 11.3 nM and the t1/2 came out at 11 s.

Molecule B3 showed a dissociation constant (Kd) of 1.3 nM and a t1/2 of 81 s.

Molecule B4 returned a Kd of 9.7 nM and a t1/2 of 31 s.

In a further test the target is T2, Biotinylated human CD3ε stalk-Fc (knob)-Avi / CD3δ stalk-Fc (hole) (human, biotinylated).
T2 construct: also called human CD3ε/δ
T2 sequence (chain, as listed by the source mutant limits assumed, chain 1 of 2): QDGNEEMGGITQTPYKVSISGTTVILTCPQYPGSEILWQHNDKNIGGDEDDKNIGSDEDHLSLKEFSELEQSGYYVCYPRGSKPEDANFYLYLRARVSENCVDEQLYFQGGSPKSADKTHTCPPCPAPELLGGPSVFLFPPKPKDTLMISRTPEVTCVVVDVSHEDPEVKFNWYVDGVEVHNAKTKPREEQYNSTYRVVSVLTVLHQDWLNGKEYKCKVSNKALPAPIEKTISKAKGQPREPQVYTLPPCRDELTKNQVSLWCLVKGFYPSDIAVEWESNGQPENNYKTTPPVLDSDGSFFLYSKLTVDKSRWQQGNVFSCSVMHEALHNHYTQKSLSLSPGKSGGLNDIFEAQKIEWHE
T2 sequence (chain, as listed by the source mutant limits assumed, chain 2 of 2): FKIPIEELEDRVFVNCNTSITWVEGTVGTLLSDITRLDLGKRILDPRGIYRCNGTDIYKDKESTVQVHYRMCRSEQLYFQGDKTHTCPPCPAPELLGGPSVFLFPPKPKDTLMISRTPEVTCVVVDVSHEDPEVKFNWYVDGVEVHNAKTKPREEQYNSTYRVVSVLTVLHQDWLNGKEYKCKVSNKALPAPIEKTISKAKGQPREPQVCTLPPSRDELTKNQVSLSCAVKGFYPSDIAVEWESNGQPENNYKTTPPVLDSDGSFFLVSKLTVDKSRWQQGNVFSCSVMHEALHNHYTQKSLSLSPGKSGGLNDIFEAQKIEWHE
The description is as above. How it is done:
as §1, §2
Regarding B1, the equilibrium dissociation constant (Kd) came out at 0.2 nM and the t1/2 is 529 s.

B2 returned a dissociation constant (Kd) of 12.6 nM and a t1/2 of 11 s.

Take B3: binding was put at a Kd of 1.5 nM and the t1/2 turned out to be 81 s.

On to B4, for which binding was characterised by a dissociation constant (Kd) of 11.5 nM and the t1/2 was 30 s.

The target of another test is HSP90. Briefly: polyreactivity ELISA, coated antigen 1 µg/ml, TCB 1 µg/ml. As for the experimental part: (§3) Polyreactivity was tested using an ELISA-based read out. A set of different antigens depicted in Table 9 was coated on a Nunc MaxiSorp microtiter plate (Fisher Scientific) overnight at 4° C. with a concentration of 1 μg/ml in Dulbecco's phosphate buffered saline (DPBS, PAN Biotech #P04-36500) each. After washing the plate two times using PBS (Roche Diagnostics #11666789001) containing 0.1% Tween-20, plates were blocked with DPBS, 2% bovine serum albumin (BSA, Roche Diagnostics #10735108001) for 1 hour at room temperature. After washing the plate three times, the HER2 TCBs were added with a concentration of 1 μg/ml diluted in DPBS and incubated for 1 hour at room temperature. Subsequently, plates were washed three times and an anti-human IgG F(ab′)2-HRP (Jackson ImmunoResearch #109-036-006) diluted 1:5000 in PBS, 0.5% BSA, 0.05% Tween-20 was added. After incubation for 1 hour at room temperature and washing for four times, TMB substrate (Sigma-Aldrich #T0440) was added and absorption was measured at 370/492 nm.
On the technique in general: An ELISA detects its analyte on a solid surface through an enzyme-linked reagent.
Consider B1, for which the “Absorbance (OD)” value worked out at 0.02 OD.

Turning to B2, the “Absorbance (OD)” value is 0.07 OD.

In the case of B3, the “Absorbance (OD)” value turned out to be 0.03 OD.

Take B4: the “Absorbance (OD)” value was found to be 0.07 OD.

A further test has as its target human CD3ε (coated antigen of the polyreactivity ELISA) (human, UniProt P07766 23-126, limits assumed). The test is described as above. How it is done: as §3
B1: the “Absorbance (OD)” value was 2.87 OD.

For B2, the “Absorbance (OD)” value was determined as 2.2 OD.

Take B3: the “Absorbance (OD)” value stood at 2.83 OD.

Regarding B4, the “Absorbance (OD)” value is 2.99 OD.

A further test has as its target Hemocyanin. The test is described as above. How it is done:
as §3
As to B1, the “Absorbance (OD)” value is 0.02 OD.

With B2, the “Absorbance (OD)” value worked out at 0.02 OD.

B3: the “Absorbance (OD)” value was found to be 0.07 OD.

As to B4, the “Absorbance (OD)” value is 0.08 OD.

The target of the next test is T3, Streptavidin (UniProt P22629 37-163, limits assumed). The test is described as above. As for the experimental part: as §3
T3 sequence (P22629 37-163 limits assumed): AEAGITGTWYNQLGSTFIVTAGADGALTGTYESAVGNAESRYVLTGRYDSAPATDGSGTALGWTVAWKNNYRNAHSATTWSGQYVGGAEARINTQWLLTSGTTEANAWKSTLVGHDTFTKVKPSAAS
Take B1: the “Absorbance (OD)” value amounted to 0 OD.

On to B2, for which the “Absorbance (OD)” value amounted to 0 OD.

On to B3, for which the “Absorbance (OD)” value was determined as 0.01 OD.

B4: the “Absorbance (OD)” value turned out to be 0 OD.

In another test the target is Insulin. The description is as above. As for the experimental part:
as §3
Turning to B1, the “Absorbance (OD)” value worked out at 0.01 OD.

Regarding B2, the “Absorbance (OD)” value came out at 0.02 OD.

Consider B3, for which the “Absorbance (OD)” value was 0.04 OD.

B4: the “Absorbance (OD)” value worked out at 0.04 OD.

A further test addresses T4, Histone H4 aa2-24 (UniProt P62805 2-24).
T4 construct: range 2-24
The description is as above. As for the experimental part: as §3
Regarding B1, the “Absorbance (OD)” value worked out at 0.05 OD.

In the case of B2, the “Absorbance (OD)” value was 0 OD.

For the molecule B3, the “Absorbance (OD)” value came out at 0.06 OD.

Regarding B4, the “Absorbance (OD)” value came to 0.07 OD.

The next test has as its target Gelatine (2%). The test is described as above. How it is done:
as §3
On to B1, for which the “Absorbance (OD)” value is -0.01 OD.

For B2, the “Absorbance (OD)” value is -0.01 OD.

Turning to B3, the “Absorbance (OD)” value stood at 0.01 OD.

Regarding B4, the “Absorbance (OD)” value came out at 0.01 OD.

For another test, the target named is Apolipoprotein A-1. The test is described as above. How it is done:
as §3
Consider B1, for which the “Absorbance (OD)” value turned out to be 0 OD.

Consider B2, for which the “Absorbance (OD)” value is 0.01 OD.

Consider B3, for which the “Absorbance (OD)” value is 0.01 OD.

Take B4: the “Absorbance (OD)” value was 0.01 OD.

The next test has as its target T5, Bovine Serum Albumin (bovine, UniProt P02769 25-607).
T5 construct: also called BSA
The description is as above. How it is done: as §3
On to B1, for which the “Absorbance (OD)” value came to 0 OD.

Regarding B2, the “Absorbance (OD)” value was 0 OD.

Turning to B3, the “Absorbance (OD)” value turned out to be 0.01 OD.

For B4, the “Absorbance (OD)” value stood at 0.01 OD.

The next test has as its target T6, Human CD3 on Jurkat NFAT reporter cells (human, UniProt P07766 23-207).
T6 construct: CD3 complex on the cell surface; also called CD3 on Jurkat cells; CD3 antigen (expressed on Jurkat-NFAT reporter cells)
Briefly: flow cytometry on CD3-expressing Jurkat NFAT reporter cells, PE-conjugated anti-human IgG Fc secondary antibody, median fluorescence intensity. How it is done:
The antibody staining was performed in a 96-well round bottom plate. Therefore 200′000 cells were seeded per well.
One may read the EC50 (read off the curve) as the concentration needed to bring the measured effect to its halfway point. Read a high EC50 (read off the curve) as lower potency in that assay. For the molecule B1, the “EC50 (read off the curve)” value was roughly 6 nM.

For the next test, the target named is T3, Streptavidin. The test is described as follows: polyreactivity ELISA, coated antigen. As for the experimental part:
as §3
Regarding B1, the binding result is “no binding (tested: 1 µg/ml)”.

Take B2: the binding result was “no binding (tested: 1 µg/ml)”.

As to B3, the binding result is recorded as “no binding (tested: 1 µg/ml)”.

Turning to B4, the binding result is “no binding (tested: 1 µg/ml)”.

The target of another test is T4, Histone H4 aa2-24. Briefly: polyreactivity ELISA, coated antigen. How it is done:
as §3
For B1, the binding result is “no binding (tested: 1 µg/ml)”.

Consider B2, for which the binding result is “no binding (tested: 1 µg/ml)”.

For B3, the binding result is on record as “no binding (tested: 1 µg/ml)”.

For the molecule B4, the binding result is reported as “no binding (tested: 1 µg/ml)”.

In another test the target is T5, Bovine Serum Albumin. Briefly: polyreactivity ELISA, coated antigen. How it is done: as §3
B1: the binding result is “no binding (tested: 1 µg/ml)”.

On to B2, for which the binding result was “no binding (tested: 1 µg/ml)”.

As to B3, the binding result is listed as “no binding (tested: 1 µg/ml)”.

In the case of B4, the binding result is “no binding (tested: 1 µg/ml)”.
